The nature of data set [1]: Glucose-dependent fluorescence emission intensity spectra of conjugates (Nanodrop3300). To be noted: for Type of fluorescence response to glucose: Nanodrop3300. It is filed as biochemical. From the text: Semi-synthetic FRSs were engineered by site-specifically attaching thiol-reactive, environmentally sensitive fluorophores that respond to ligand-mediated conformational changes. Identification of FRS candidates that are useful for sensing applications comprises three steps: • 1. Cysteine scan. Mutant glucose-binding proteins containing single cysteines are constructed for site-specific attachment of thiol-reactive fluorophores. […] Candidate positions fall into three classes: endosteric, replacing a residue that contacts the ligand directly; peristeric, located at the rim of the binding site; allosteric (Marvin et al. 1997 Proc Natl Acad Sci USA, 94, 4366-71; Marvin 1998 J Am Chem Soc, 120, 7-11), located outside the binding site at sites that undergo local structural changes in concert with the hinge-bending motion. • 2. Fluorophore screening. Thiol-reactive, environmentally sensitive fluorophores are attached to each cysteine mutant prepared in step 1. • 3. Evaluation of the glucose-mediated change of all the fluorescent conjugates prepared in step 2. Responses to ligand binding in which there is both a change in fluorescence emission intensity and spectral shape was essential for chemometric applications, because such changes enable ratiometric measurements. Changes in spectral shape typically are accompanied by a shift in the wavelength of the emission intensity maxima. Three classes of fluorescent responses are possible: • i. No response. • ii. Monochromatic response (emission intensity increases or decreases without a change in spectral shape) • iii.

The nature of data set [2]: Glucose binding: isothermal fluorescence titrations, ratiometric (appKd) and monochromatic (trueKd) fits. The conditions noted are these: Acrylodan conjugate, room temperature. From the text: 2 For a single glucose-binding site, the fractional saturation is given by
[formula] where ^apoIλ2 and ^satIλ2 are the emission intensities of the monochromatic signal at wavelength λ2 of the ligand-free and ligand-bound protein, respectively.

Data set [3] is described as follows: Galactose binding: isothermal fluorescence titrations of conjugates. To be noted: Acrylodan conjugate; for S, selectivity = trueKd(galactose)/trueKd(glucose): S > 1, selective for glucose; for Kd: read-out: Galactose trueKd, monochromatic titration curves, room temperature.
Data set [4] can be described thus: Thermostability: mid-point thermal denaturation temperature (Tm) from temperature-dependent fluorescence (Roche LightCycler). It is filed as physicochemical. To be noted: Acrylodan conjugate; apo-protein. From the text:
Protein (un)folding is monitored by binding of SYPRO to the unfolded state as a function of temperature. Fluorescence intensity increases upon binding of SYPRO by the unfolded state.
Panels A-C: ttGBP182C.2.0-Imm0; Panels D-F: ttGBP182C.2.0-Imm1 (see FIG. 13). (A) Solution (Tm=347.6K). (B) Immobilized on Nickel-nitriloacetic acid (Ni-NTA) beads (Tm=346.7K). (C) Reconstituted, desiccated Ni-NTA beads (Tm=347.6K). (D) Fluorescence response of ttGGBP5.2 Imm1 immobilized on NHS-functionalized agarose beads. Data was collected on a Roche LightCycler real-time PCS instrument, recording emission intensities at 488 nm and 510 nm as a function of temperature in a 384-well microtiter plate. […] Temperature melts of twelve different wells. Apo protein thermostability as reported by the denaturation mid-point temperature is 349 K, similar to the protein free in solution. […] (F) Representative Langmuir ligand-binding curve extracted from the three-dimensional data.
Temperatures were advanced in 1K steps. […] Under these experimental photobleaching was not observed.

The mark [5] stands for this setting: read-out: Glucose appKd, dichromatic ratiometry.
[6] abbreviates: read-out: Glucose trueKd, monochromatic titration curves.

In the case of W183C (Ec), the “Type of fluorescence response to glucose” value in data set [1] (Acrylodan conjugate of ttGGBP or ecGGBP (Ec) cysteine mutant) is on record as “r (b) (r (b), ratiometric (bathochromic shift))”.
Regarding “ecGGBP W183C⋅Acrylodan: Acrylodan attached to W183C mutant of E. coli GGBP (SEQ ID NO: 32)”, the “direction of emission wavelength shift upon glucose binding” value in data set [1] (isochromic / hypsochromic / bathochromic) was “bathochromic”.

B1: ttGGBP17C.9: affinity-tuning mutant, 17C background, SEQ ID NO: 74 (protein)
chain: MKQLNIGVAIYKFDDSCMTGVRNAMTAEAQGKAKLNMVDSQNSQPTQNDQVDLFITKKMNALAINPVDRTAAGTIIDKAKQANIPVVFFNREPLPEDMKKWDKVYYVGAKAEQSGILQGQIMADYWKAHPEADKNHDGVMQYVMLMGQPGHQDAILRTQYSIQTVKDAGIKVQELAKDYANWDRVTAHDKMAAWLSSFGDKIEAVFANNDDMALGAIEALKSAGYFTGNKYIPVVGVDATAPGIQAIKDGTLLGTVLNDAKNQAKATFNIAYELAQGITPTKDNIGYDITDGKYVWIPYKKITKDNISDAEQGGSHHHHHH
modifications: ttGGBP17C.9 (affinity-tuning mutant, 17C background (Table 6) with signal peptide replaced with M and GGSHHHHHH at C-terminus)
For the molecule B1, the Kd in data set [2] (setting [5]) and in data set [2] (setting [6]) was 0.2 mM in each case. In data set [1] (Acrylodan conjugate of ttGGBP.17C mutant), the “Type of fluorescence response to glucose” value was “r(h) (r(h), ratiometric (hypsochromic shift))”.

B2: ttGGBP182C.8: affinity-tuning mutant, 182C background, SEQ ID NO: 102 (protein)
chain: MKQLNIGVAIYKFDDTFMTGVRNAMTAEAQGKAKLNMVDSQNSQPTQNDQVDLFITKKMNALAINPVDRTAAGTIIDKAKQANIPVVFFNKEPLPEDMKKWDKVYYVGAKAEQSGILQGQIMADYWKAHPEADKNHDGVMQYVMLMGKPGHQDAILRTQYSIQTVKDAGIKVQELAKDYANCDRVTAHDKMAAWLSSFGDKIEAVFANNDDMALGAIEALKSAGYFTGNKYIPVVGVDATAPGIQAIKDGTLLGTVLNDAKNQAKATFNIAYELAQGITPTKDNIGYDITDGKYVWIPYKKITKDNISDAEQGGSHHHHHH
modifications: ttGGBP182C.8 (affinity-tuning mutant, 182C background (Table 6) with signal peptide replaced with M and GGSHHHHHH at C-terminus)
As to B2, the “S, selectivity = trueKd(galactose)/trueKd(glucose)” value in data set [3] is 5.8. Moreover, the Kd turned out to be 28.7 mM in data set [2] (setting [5]) and 44.2 mM in data set [2] (setting [6]). Also, the apoTm in data set [4] is listed as 346 K.

B3: ttGGBP182C.9: affinity-tuning mutant, 182C background, SEQ ID NO: 103 (protein)
chain: MKQLNIGVAIYKFDNTFMTGVRNAMTAEAQGKAKLNMVDSQNSQPTQNDQVDLFITKKMNALAINPVDRTAAGTIIDKAKQANIPVVFFNREPLPEDMKKWDKVYYVGAKAEQSGILQGQIMADYWKAHPEADKNHDGVMQYVMLMGQPGHQDAILRTQYSIQTVKDAGIKVQELAKDYANCDRVTAHDKMAAWLSSFGDKIEAVFANNDDMALGAIEALKSAGYFTGNKYIPVVGVDATAPGIQAIKDGTLLGTVLNDAKNQAKATFNIAYELAQGITPTKDNIGYDITDGKYVWIPYKKITKDNISDAEQGGSHHHHHH
modifications: ttGGBP182C.9 (affinity-tuning mutant, 182C background (Table 6) with signal peptide replaced with M and GGSHHHHHH at C-terminus)
On to B3, for which, in data set [3], the “S, selectivity = trueKd(galactose)/trueKd(glucose)” value amounted to 3.7. For the same molecule, the Kd in data set [2] (setting [5]) came to 75.1 mM; in data set [2] (setting [6]), 76.4 mM. Also, in data set [4], the apoTm is given as 343 K.

B4: ttGGBP182C.4: affinity-tuning mutant, 182C background, SEQ ID NO: 98 (protein)
chain: MKQLNIGVAIYKFDDTFMTGVRNAMTAEAQGKAKLNMVDSQNSQPTQNDQVDLFITKKMNALAINPVDRTAAGTIIDKAKQANIPVVFFNREPLPEDMKKWDKVYYVGAKAEQSGILQGQIMADYWKAHPEADKNHDGVMQYVMLMGEPGHQDAILRTQYSIQTVKDAGIKVQELAKDYANCDRVTAHDKMAAWLSSFGDKIEAVFANNDDMALGAIEALKSAGYFTGNKYIPVVGVDATAPGIQAIKDGTLLGTVLNDAKNQAKATFNIAYELAQGITPTKDNIGYDITDGKYVWIPYKKITKDNISDAEQGGSHHHHHH
modifications: ttGGBP182C.4 (affinity-tuning mutant, 182C background (Table 6) with signal peptide replaced with M and GGSHHHHHH at C-terminus)
Consider B4, for which the “S, selectivity = trueKd(galactose)/trueKd(glucose)” value in data set [3] is 8.1. For the same molecule, the Kd stood at 6.5 mM in data set [3], 0.6 mM in data set [2] (setting [5]) and 0.8 mM in data set [2] (setting [6]). The molecule further showed an apoTm in data set [4] of 347 K.

B5: ttGGBP182C.3: affinity-tuning mutant, 182C background, SEQ ID NO: 97 (protein)
chain: MKQLNIGVAIYKFDDTFMTGVRNAMTAEAQGKAKLNMVDSQNSQPTQNDQVDLFITKKMNALAINPVDRTAAGTIIDKAKQANIPVVFFNKEPLPEDMKKWDKVYYVGAKAEQSGILQGQIMADYWKAHPEADKNHDGVMQYVMLMGQPGHQDAILRTQYSIQTVKDAGIKVQELAKDYANCDRVTAHDKMAAWLSSFGDKIEAVFANNDDMALGAIEALKSAGYFTGNKYIPVVGVDATAPGIQAIKDGTLLGTVLNDAKNQAKATFNIAYELAQGITPTKDNIGYDITDGKYVWIPYKKITKDNISDAEQGGSHHHHHH
modifications: ttGGBP182C.3 (affinity-tuning mutant, 182C background (Table 6) with signal peptide replaced with M and GGSHHHHHH at C-terminus)
As for B5, the Kd in data set [3] stood at 3.1 mM; in data set [2] (setting [6]), 0.9 mM. Besides, in data set [4], the apoTm is 346 K.

B6: ttGGBP182C.5: affinity-tuning mutant, 182C background, SEQ ID NO: 99 (protein)
chain: MKQLNIGVAIYKFDDTFMTGVRNAMTAEAQGKAKLNMVDSQNSQPTQNDQVDLFITKKMNALAINPVDPTAAGTIIDKAKQANIPVVFFNREPLPEDMKKWDKVYYVGAKAEQSGILQGQIMADYWKAHPEADKNHDGVMQYVMLMGQPGHPDAILRTQYSIQTVKDAGIKVQELAKDYANCDRVTAHDKMAAWLSSFGDKIEAVFANNDDMALGAIEALKSAGYFTGNKYIPVVGVDATAPGIQAIKDGTLLGTVLNDAKNQAKATFNIAYELAQGITPTKDNIGYDITDGKYVWIPYKKITKDNISDAEQGGSHHHHHH
modifications: ttGGBP182C.5 (affinity-tuning mutant, 182C background (Table 6) with signal peptide replaced with M and GGSHHHHHH at C-terminus)
B6: the “S, selectivity = trueKd(galactose)/trueKd(glucose)” value in data set [3] worked out at 0.8. In addition, the Kd in data set [3] is 7.4 mM; in data set [2] (setting [5]), 7.5 mM; in data set [2] (setting [6]) it was 8.8 mM. This molecule had an apoTm in data set [4] of 349 K.

B7: ttGGBP182C.6: affinity-tuning mutant, 182C background, SEQ ID NO: 100 (protein)
chain: MKQLNIGVAIYKFDDNFMTGVRNAMTAEAQGKAKLNMVDSQNSQPTQNDQVDLFITKKMNALAINPVDRTAAGTIIDKAKQANIPVVFFNREPLPEDMKKWDKVYYVGAKAEQSGILQGQIMADYWKAHPEADKNHDGVMQYVMLMGQPGHQDAILRTQYSIQTVKDAGIKVQELAKDYANCDRVTAHDKMAAWLSSFGDKIEAVFANNDAMALGAIEALKSAGYFTGNKYIPVVGVDATAPGIQAIKDGTLLGTVLNDAKNQAKATFNIAYELAQGITPTKDNIGYDITDGKYVWIPYKKITKDNISDAEQGGSHHHHHH
modifications: ttGGBP182C.6 (affinity-tuning mutant, 182C background (Table 6) with signal peptide replaced with M and GGSHHHHHH at C-terminus)
Take B7: the “S, selectivity = trueKd(galactose)/trueKd(glucose)” value in data set [3] was 2.9. The values for the Kd in data set [3], in data set [2] (setting [5]) and in data set [2] (setting [6]) were 81 mM, 21.6 mM and 27.6 mM, respectively. In data set [4], the apoTm was 345 K.
